Data as given in patent US7223734B2, “Plasma protein-binding ligands” (The American National Red Cross, priority 2002, dated 2007).
Non-standard residues stand in square brackets, D forms with d. No end group written: not given here.

Legend:
Type in all cases: binding
Apo-A1 lipoprotein = molecular target: T1, Apo-A1 lipoprotein (Homo sapiens, UniProt P02647); test: Apo-A1 lipoprotein purification from fibrinogen-depleted plasma on peptide resin column (Example 4); details: for removal / depletion of Apo-A1 lipoprotein in flow-through: fibrinogen-depleted plasma, 14 ml on 2.3 ml resin, SDS-PAGE
T1 construct: from tissue; host or cells: human plasma (whole or fibrinogen-depleted)
T1 sequence (P02647 25-267 limits assumed): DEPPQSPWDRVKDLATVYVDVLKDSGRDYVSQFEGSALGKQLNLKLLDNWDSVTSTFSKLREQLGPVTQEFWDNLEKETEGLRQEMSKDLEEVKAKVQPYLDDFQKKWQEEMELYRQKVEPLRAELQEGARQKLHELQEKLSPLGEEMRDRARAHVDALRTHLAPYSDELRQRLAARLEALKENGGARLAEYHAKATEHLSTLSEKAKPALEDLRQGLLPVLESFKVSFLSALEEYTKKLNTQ
Procedure: (§1) Apo-A1 lipoprotein purification was accomplished with D-WWLHIN (SEQ ID NO: 33) peptides and several analogs. Indeed, about 100% Apo-A1 lipoprotein depletion from plasma was repeatedly obtained with D-WWLHAN (SEQ ID NO: 56) and D-WWLHIN (SEQ ID NO: […]). Fourteen milliliters of fibrinogen-depleted plasma was loaded onto a 2.3 ml column (CF=0.785 cm^2) at 0.4 ml/min. (LV=30 cm/H; RT=5.8) that had been equilibrated with 0.14 M NaCl, 0.020 M sodium citrate, pH 7.0 (EQ buffer). After the column was washed with EQ buffer to baseline, Apo-A1 lipoprotein was eluted with 2.0 M NaCl, 1% Tween-20, 0.020M sodium citrate, pH 7.0. The column was regenerated with 2.0 M guanidine-HCl, 2% Sarkosyl, and 2% acetic acid and stored in 20% methanol.

API = molecular target: T2, API (Homo sapiens, UniProt P01009); test: API recovery in Apo-A1 purification run (Example 4); details: load 10.6 mg
T2 construct: from tissue; host or cells: human plasma (whole, fibrinogen-depleted or F1-Apo-depleted)
T2 sequence (P01009 25-418): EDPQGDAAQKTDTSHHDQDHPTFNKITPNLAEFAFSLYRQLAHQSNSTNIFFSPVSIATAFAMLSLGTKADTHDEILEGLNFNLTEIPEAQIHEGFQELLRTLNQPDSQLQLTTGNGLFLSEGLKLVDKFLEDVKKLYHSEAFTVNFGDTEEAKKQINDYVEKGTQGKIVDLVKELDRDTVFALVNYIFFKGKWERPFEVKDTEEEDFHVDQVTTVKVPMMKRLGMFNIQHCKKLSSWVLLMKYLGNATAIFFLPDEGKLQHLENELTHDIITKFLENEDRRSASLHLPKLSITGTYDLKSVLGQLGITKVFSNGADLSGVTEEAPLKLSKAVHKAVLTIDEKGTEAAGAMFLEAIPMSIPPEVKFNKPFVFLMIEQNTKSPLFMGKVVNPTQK
Procedure: as §1

albumin = molecular target: T3, albumin (Homo sapiens, UniProt P02768); test: Albumin recovery in Apo-A1 purification run (Example 4); details: load 372 mg
T3 construct: from tissue; host or cells: human plasma (fibrinogen-depleted or F1-Apo-depleted)
Procedure: as §1

Apo-A1 Elution (Apo-A1 lipoprotein; 2.0 M NaCl, 1% Tween-20 eluate, load 12.9 mg): 9.1 mg
removal / depletion of Apo-A1 lipoprotein in flow-through (Apo-A1 lipoprotein): Complete Apo-A1 lipoprotein depletion
removal / depletion of Apo-A1 lipoprotein in flow-through (Apo-A1 lipoprotein; listed as WFLHIN): complete removal
API Flow Through (API): 12.5 mg
Albumin Flow Through (albumin): 386 mg
Substance: WFLHIN ([dW]FLHIN; not fully specified (residues 2, 3, 4, 5, 6)) [D-WFLHIN]
